Measured values: the Immune Epitope Database (IEDB)

Experiments:
HLA-B*18:01 = test: IEDB peptide-MHC binding, purified MHC/direct/fluorescence; filed as Kd, often an IC50 or EC50 that approximates it; ≥ and ≤ were set here for values at or beyond the usual limits of such assays
HLA-B*15:01 = test: as above
HLA-A*29:02 = test: as above
HLA-A*24:03 = test: as above
HLA-A*69:01 [1] = test: as above
HLA-A*02:19 = test: as above
HLA-A*68:02 = test: as above
HLA-A*23:01 = test: as above
HLA-A*26:01 [2] = test: as above
HLA-B*15:17 = test: as above
HLA-B*39:01 [3] = test: as above
HLA-B*57:01 = test: as above
HLA-B*51:01 [4] = test: as above
HLA-A*02:11 = test: as above
HLA-B*27:03 [5] = test: as above
HLA-B*07:02 = test: as above
HLA-A*02:01 = test: as above
HLA-A*02:12 = test: as above
HLA-B*46:01 = test: as above
HLA-A*03:01 = test: as above
HLA-B*35:01 = test: as above
HLA-A*02:16 = test: as above
HLA-A*02:03 = test: as above
HLA-C*12:03 = test: as above
HLA-B*15:02 [6] = test: IEDB peptide-MHC binding, purified MHC/competitive/fluorescence; filed as Kd, often an IC50 or EC50 that approximates it; ≥ and ≤ were set here for values at or beyond the usual limits of such assays; settings: source organism: Shigella boydii CDC 3083-94
HLA-A*80:01 = test: IEDB peptide-MHC binding, purified MHC/direct/fluorescence; filed as Kd, often an IC50 or EC50 that approximates it; ≥ and ≤ were set here for values at or beyond the usual limits of such assays
HLA-B*15:02 [7] = test: as above; settings: source organism: Hantaan virus Q32
HLA-A*01:01 = test: as above
HLA-B*48:01 = test: as above; settings: source organism: Orthohantavirus negraense
HLA-B*27:05 = test: as above
HLA-B*08:01 = test: as above
HLA-B*40:01 = test: as above
HLA-A*69:01 [8] = test: IEDB peptide-MHC binding, purified MHC/competitive/fluorescence; filed as Kd, often an IC50 or EC50 that approximates it; ≥ and ≤ were set here for values at or beyond the usual limits of such assays; settings: source organism: Orthohantavirus tulaense
HLA-A*26:01 [9] = test: as above; settings: source organism: Orthohantavirus tulaense
HLA-B*39:01 [10] = test: as above; settings: source organism: Orthohantavirus tulaense
HLA-B*51:01 [11] = test: as above; settings: source organism: Orthohantavirus tulaense
HLA-B*27:03 [12] = test: as above; settings: source organism: Orthohantavirus tulaense
HLA-A*31:01 = test: IEDB peptide-MHC binding, purified MHC/direct/fluorescence; filed as Kd, often an IC50 or EC50 that approximates it; ≥ and ≤ were set here for values at or beyond the usual limits of such assays; settings: source organism: Cryptosporidium parvum
HLA-B*58:01 = test: as above; settings: source organism: Cryptosporidium parvum
HLA-A*11:01 = test: as above; settings: source organism: Cryptosporidium parvum
HLA-B*44:02 = test: as above; settings: source organism: Cryptosporidium parvum
HLA-A*02:50 = test: IEDB peptide-MHC binding, purified MHC/competitive/fluorescence; filed as Kd, often an IC50 or EC50 that approximates it; ≥ and ≤ were set here for values at or beyond the usual limits of such assays; settings: source organism: Cryptosporidium parvum
HLA-C*05:01 = test: IEDB peptide-MHC binding, purified MHC/direct/fluorescence; filed as Kd, often an IC50 or EC50 that approximates it; ≥ and ≤ were set here for values at or beyond the usual limits of such assays; settings: source organism: human gammaherpesvirus 4
HLA-C*08:02 = test: as above; settings: source organism: human gammaherpesvirus 4
[13] = source organism: Coxiella burnetii Q321
[14] = source organism: Cryptosporidium parvum Iowa II
[15] = source organism: Orthohantavirus hantanense
[16] = source organism: Toxoplasma gondii RH
[17] = source organism: Orthohantavirus negraense
[18] = source organism: Orthohantavirus tulaense
[19] = source organism: Cryptosporidium parvum

For DGAEGINPY, the Kd (HLA-B*18:01; [13]) was ≥ 20 µM, the Kd (HLA-B*15:01; [13]) was 11 µM and the Kd (HLA-A*29:02; [13]) was ≥ 20 µM. For the same sequence, the Kd (HLA-A*24:03; [13]) was ≥ 20 µM, the Kd (HLA-A*69:01 [1]; [13]) was ≥ 20 µM and the Kd (HLA-A*02:19; [13]) was ≥ 20 µM. The Kd (HLA-A*68:02; [13]) was ≥ 20 µM, the Kd (HLA-A*23:01; [13]) was ≥ 20 µM and the Kd (HLA-A*26:01 [2]; [13]) was ≥ 20 µM. The Kd (HLA-B*15:17; [13]) was ≥ 20 µM, the Kd (HLA-B*39:01 [3]; [13]) was ≥ 20 µM and the Kd (HLA-B*57:01; [13]) was ≥ 20 µM. For the same sequence, the Kd (HLA-B*51:01 [4]; [13]) was ≥ 20 µM, the Kd (HLA-A*02:11; [13]) was ≥ 20 µM and the Kd (HLA-B*27:03 [5]; [13]) was ≥ 20 µM. For the same sequence, the Kd (HLA-B*07:02; [13]) was 8.58 µM, the Kd (HLA-A*02:01; [13]) was ≥ 20 µM and the Kd (HLA-A*02:12; [13]) was ≥ 20 µM. For the same sequence, the Kd (HLA-B*46:01; [13]) was ≥ 20 µM, the Kd (HLA-A*03:01; [13]) was ≥ 20 µM and the Kd (HLA-B*35:01; [13]) was 0.267 µM. The Kd (HLA-A*02:16; [13]) was ≥ 20 µM and the Kd (HLA-A*02:03; [13]) was ≥ 20 µM.
With FMAAFYRVM the Kd (HLA-C*12:03; source organism: Shigella boydii CDC 3083-94) was ≤ 0.001 µM and the Kd (HLA-B*15:02 [6]) was 0.0183 µM.
For HSEEGSRAY, the Kd (HLA-A*80:01; source organism: Yellow fever virus) was ≥ 20 µM.
For LPWFLDTTI, the Kd (HLA-B*18:01; [14]) was ≥ 20 µM, the Kd (HLA-B*15:01; [14]) was ≥ 20 µM and the Kd (HLA-A*02:19; [14]) was ≥ 20 µM. For the same sequence, the Kd (HLA-A*26:01 [2]; [14]) was ≥ 20 µM, the Kd (HLA-B*39:01 [3]; [14]) was ≥ 20 µM and the Kd (HLA-B*57:01; [14]) was ≥ 20 µM. The Kd (HLA-B*51:01 [4]; [14]) was 0.034 µM, the Kd (HLA-B*27:03 [5]; [14]) was ≥ 20 µM and the Kd (HLA-A*02:01; [14]) was ≥ 20 µM. For the same sequence, the Kd (HLA-A*02:12; [14]) was ≥ 20 µM, the Kd (HLA-B*46:01; [14]) was ≥ 20 µM and the Kd (HLA-A*03:01; [14]) was ≥ 20 µM. The Kd (HLA-A*02:16; [14]) was ≥ 20 µM and the Kd (HLA-A*02:03; [14]) was ≥ 20 µM.
For LQYAIRSVF, the Kd (HLA-B*15:01; [15]) was 0.004 µM, the Kd (HLA-B*15:02 [7]) was 0.008 µM and the Kd (HLA-B*46:01; [15]) was 1.95 µM.
With LTMNLVSDI the Kd (HLA-B*18:01; [16]) was ≥ 20 µM, the Kd (HLA-B*15:01; [16]) was ≥ 20 µM and the Kd (HLA-A*24:03; [16]) was ≥ 20 µM. The Kd (HLA-A*26:01 [2]; [16]) was ≥ 20 µM, the Kd (HLA-B*15:17; [16]) was 0.003 µM and the Kd (HLA-B*39:01 [3]; [16]) was ≥ 20 µM. For the same sequence, the Kd (HLA-B*57:01; [16]) was ≥ 20 µM, the Kd (HLA-B*27:03 [5]; [16]) was ≥ 20 µM and the Kd (HLA-B*46:01; [16]) was ≥ 20 µM. The Kd (HLA-A*03:01; [16]) was ≥ 20 µM.
MSRKLHRYI was tested, and the Kd (HLA-B*18:01; [17]) was ≥ 20 µM, the Kd (HLA-B*15:01; [17]) was ≥ 20 µM and the Kd (HLA-A*29:02; [17]) was ≥ 20 µM. For the same sequence, the Kd (HLA-A*24:03; [18]) was ≥ 20 µM, the Kd (HLA-A*01:01; [17]) was ≥ 20 µM and the Kd (HLA-A*68:02; [18]) was ≥ 20 µM. For the same sequence, the Kd (HLA-B*48:01) was ≥ 20 µM, the Kd (HLA-A*23:01; [18]) was ≥ 20 µM and the Kd (HLA-B*27:05; [17]) was ≥ 20 µM. The Kd (HLA-B*08:01; [17]) was 4.71 µM, the Kd (HLA-A*02:11; [18]) was ≥ 20 µM and the Kd (HLA-B*07:02; [17]) was ≥ 20 µM. For the same sequence, the Kd (HLA-A*02:01; [17]) was ≥ 20 µM, the Kd (HLA-A*02:12; [18]) was ≥ 20 µM and the Kd (HLA-B*46:01; [17]) was ≥ 20 µM. For the same sequence, the Kd (HLA-A*03:01; [18]) was ≥ 20 µM, the Kd (HLA-B*40:01; [17]) was ≥ 20 µM and the Kd (HLA-C*12:03; [18]) was 0.441 µM. The Kd (HLA-A*69:01 [8]) was ≥ 20 µM, the Kd (HLA-A*26:01 [9]) was ≥ 20 µM and the Kd (HLA-B*39:01 [10]) was ≥ 20 µM. For the same sequence, the Kd (HLA-B*51:01 [11]) was ≥ 20 µM and the Kd (HLA-B*27:03 [12]) was ≥ 20 µM.
For MTGVMRGNY, the Kd (HLA-A*80:01; source organism: Yellow fever virus strain Ghana/Asibi/1927) was 0.38 µM.
In the case of WLPWIPQLI, the Kd (HLA-A*31:01) is reported as ≥ 20 µM, the Kd (HLA-B*15:01; [19]) is reported as ≥ 5 µM and the Kd (HLA-A*24:03; [19]) is reported as 3.44 µM. The Kd (HLA-A*01:01; [19]) was ≥ 20 µM, the Kd (HLA-A*69:01 [1]; [19]) was 0.415 µM and the Kd (HLA-B*58:01) was ≥ 20 µM. For the same sequence, the Kd (HLA-A*26:01 [2]; [19]) was ≥ 20 µM, the Kd (HLA-B*27:05; [19]) was ≥ 20 µM and the Kd (HLA-B*08:01; [19]) was ≥ 20 µM. The Kd (HLA-A*11:01) was ≥ 20 µM, the Kd (HLA-A*02:01; [19]) was 1.24 µM and the Kd (HLA-A*03:01; [19]) was ≥ 20 µM. For the same sequence, the Kd (HLA-B*44:02) was ≥ 20 µM, the Kd (HLA-B*35:01; [19]) was 16 µM and the Kd (HLA-B*40:01; [19]) was ≥ 20 µM. The Kd (HLA-A*02:50) was 0.0046 µM.
YAAPQLFPV was tested, and the Kd (HLA-C*05:01) was 0.065 µM, the Kd (HLA-C*08:02) was 0.069 µM and the Kd (HLA-C*12:03; source organism: human gammaherpesvirus 4) was 0.004 µM.
